Data as given in publication doi:10.1101/2020.10.05.326918 (bioRxiv, 2020).

T1: MED22 (Mus musculus (endogenous in CH12 cells), UniProt Q62276 1-200)
T1 sequence (looked up): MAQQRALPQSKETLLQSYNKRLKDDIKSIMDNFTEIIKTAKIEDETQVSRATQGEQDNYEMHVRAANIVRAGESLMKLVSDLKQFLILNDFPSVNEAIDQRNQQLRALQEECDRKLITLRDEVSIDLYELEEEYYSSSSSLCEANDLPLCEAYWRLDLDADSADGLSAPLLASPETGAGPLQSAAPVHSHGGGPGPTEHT

T2: MED15 (Mus musculus (endogenous in CH12 cells), UniProt Q924H2 1-789)
T2 sequence (looked up): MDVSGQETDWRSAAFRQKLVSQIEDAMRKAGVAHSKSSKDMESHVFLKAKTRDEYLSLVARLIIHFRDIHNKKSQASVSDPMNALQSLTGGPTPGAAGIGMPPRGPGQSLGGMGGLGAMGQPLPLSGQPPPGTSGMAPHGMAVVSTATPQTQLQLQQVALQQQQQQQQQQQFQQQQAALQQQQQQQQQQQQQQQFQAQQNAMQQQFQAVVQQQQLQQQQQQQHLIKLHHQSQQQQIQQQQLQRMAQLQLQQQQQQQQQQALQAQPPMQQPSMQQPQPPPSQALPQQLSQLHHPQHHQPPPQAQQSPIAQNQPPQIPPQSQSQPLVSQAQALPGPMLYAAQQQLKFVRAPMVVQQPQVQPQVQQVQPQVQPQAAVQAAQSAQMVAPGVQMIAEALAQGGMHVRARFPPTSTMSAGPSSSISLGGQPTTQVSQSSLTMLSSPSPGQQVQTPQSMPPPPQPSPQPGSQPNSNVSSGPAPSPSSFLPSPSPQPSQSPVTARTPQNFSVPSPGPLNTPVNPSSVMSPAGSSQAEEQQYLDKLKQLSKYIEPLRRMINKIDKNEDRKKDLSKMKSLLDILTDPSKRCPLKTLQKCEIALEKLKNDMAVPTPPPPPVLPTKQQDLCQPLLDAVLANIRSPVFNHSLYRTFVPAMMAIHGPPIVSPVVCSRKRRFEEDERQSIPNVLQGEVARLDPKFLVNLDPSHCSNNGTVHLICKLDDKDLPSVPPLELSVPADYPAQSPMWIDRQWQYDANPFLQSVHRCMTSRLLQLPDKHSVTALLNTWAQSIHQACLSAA

T3: MED16 (Mus musculus (endogenous in CH12 cells), UniProt Q6PGF3 1-828)
T3 sequence (looked up): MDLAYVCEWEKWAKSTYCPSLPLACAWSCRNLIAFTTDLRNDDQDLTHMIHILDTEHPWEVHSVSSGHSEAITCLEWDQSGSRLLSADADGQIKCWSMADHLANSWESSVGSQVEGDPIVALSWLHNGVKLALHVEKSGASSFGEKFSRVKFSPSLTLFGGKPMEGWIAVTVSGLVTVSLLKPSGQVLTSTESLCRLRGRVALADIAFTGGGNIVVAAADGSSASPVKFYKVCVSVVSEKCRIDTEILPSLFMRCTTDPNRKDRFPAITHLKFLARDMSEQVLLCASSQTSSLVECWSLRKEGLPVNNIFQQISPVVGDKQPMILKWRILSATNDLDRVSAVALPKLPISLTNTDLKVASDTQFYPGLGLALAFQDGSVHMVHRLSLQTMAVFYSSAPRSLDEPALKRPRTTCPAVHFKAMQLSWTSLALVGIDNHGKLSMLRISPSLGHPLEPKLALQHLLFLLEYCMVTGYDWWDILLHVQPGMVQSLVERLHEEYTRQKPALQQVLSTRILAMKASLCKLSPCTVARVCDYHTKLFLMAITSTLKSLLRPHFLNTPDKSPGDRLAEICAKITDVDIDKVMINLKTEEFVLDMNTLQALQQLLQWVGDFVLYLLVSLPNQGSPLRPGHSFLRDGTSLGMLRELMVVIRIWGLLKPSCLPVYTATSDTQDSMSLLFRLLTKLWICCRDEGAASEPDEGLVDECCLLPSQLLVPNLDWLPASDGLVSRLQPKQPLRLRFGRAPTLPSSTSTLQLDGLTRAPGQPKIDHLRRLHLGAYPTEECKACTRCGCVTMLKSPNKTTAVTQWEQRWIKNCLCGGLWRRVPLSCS

B1: MED30 (natural protein, Mus musculus (endogenous in CH12 cells), UniProt Q9CQI9 1-178, looked up)
chain: MSTPPLAPTGMASGPFGGPQAQQAAREVNTATLCRIGQETVQDIVYRTMEIFQLLRNMQLPNGVTYHTGTYQDRLTKLQDHLRQLSILFRKLRLVYDKCNENCGGMDPIPVEQLIPYVDEDGSKNDDRAGPPRFASEERREIVEVNKKLKQKNQQLKQIMDQLRNLIWDINAMLAMRN
B2: MED27 (natural protein, Mus musculus (endogenous in CH12 cells), UniProt Q9DB40 1-311, looked up)
chain: MADVLSVGVNLEAFSQAISAIQALRSSVSRVFDCLKDGMRNKETLEGREKAFIANFQDNLHSVNRDLNELERLSNLVGKPSENHPLHNSGLLSLDPVQDKTPLYSQLLQAYKWSNKLQYHAGLASGLLNQQSLKRSANQMGVSAKRRPKAQPTTLVLPPQYVDDVISRIDRMFPEMSIHLSRPNGTSAMLLVTLGKVLKVIVVMRSLFIDRTIVKGYNESVYTEDGKLDIWSKSSYQVFQKVTDHATTALLHYQLPQMPDVVVRSFMTWLRSYIKLFQAPCQRCGKFLQDGLPPTWRDFRTLEAFHDTCRQ
B3: MED17 (natural protein, Mus musculus (endogenous in CH12 cells), UniProt Q8VCD5 1-649, looked up)
chain: MSGVRAVRISIESACEKQVQEVGLDGTETYLQPLSMSQNLARLAQRIDFSQGSGSEEEEAAGPDGDAPDWGGAGADQDDEEGLVKFQPSLWPWDSVRNNLRSALTEMCVLYDVLSIVRDKKFMTLDPVSQDALPPKQSPQTLQLISKKKSLAGAAQILLKGAERLTKSVAENQENKLQRDFNSELLRLRQHWKLRKVGDKILGDLSYRSAGSLFPHHGTFEVIKNTDIDLDKKIPEDYCPLDVQIPSDLEGSAYIKVSIQKQAPDIGDLGTVNLFKRPLPKSKPGSPHWQTKLEAAQNVLLCKEIFAQLSREAVQIKSQIPHIVVKNQIISQPFPSLQLSISLCHSSDDKKSQKCAAEKPGQEDHLYVLEHNLHLLIREFHKQTLSSIVMPHPASAPFGHKRMRLSGPQAFDKNEINSIQSTEGLLEKIIKQAKHIFLRSRTAATIDSLASRIEDPQIQAHWSNINDVYESSVKVLITSQGYEQICKSIQLQLNIGVEQVRVVHRDGRVIMLSHQEQELQDFLLSQMSQHQVHAVQQLAKVMGWQVLSFSNHVGLGPIESIGNASAITVASPSGDYAISVRNGPESGSKIMVQFPRNQCKDLPKSDVLQDSKWSHLRGPFKEVQWNKMEGRNFVYKMELLMSALSPCLL
B4: MED29 (natural protein, Mus musculus (endogenous in CH12 cells), UniProt Q9DB91 1-199, looked up)
chain: MAAPQPQAAAVSSASGVSGPGSAGGPGPQQQPQPTQLVGSAQSGLLQQQQQDFDPVQRYKMLIPQLKESLQTLMKVAAQNLIQNTNIDNGQKSSDAPLQRFDKCLEEFYALCDQLELCLRLAHECLSQSCDSAKHSPTLVPTATKPDAVQPDSLPYPQYLAVIKAQITCAKDIHTALLDCANKVTGKTTAPSTGPGGSL

What was measured:
Assay in all cases: cryo-EM structure
MED22 = target: T1, MED22
MED27 = target: B2
MED29 = target: B4
MED14 = MED14 (Mus musculus (endogenous in CH12 cells), UniProt A2ABV5 1-1459)
Chain of MED14 (A2ABV5 whole entry): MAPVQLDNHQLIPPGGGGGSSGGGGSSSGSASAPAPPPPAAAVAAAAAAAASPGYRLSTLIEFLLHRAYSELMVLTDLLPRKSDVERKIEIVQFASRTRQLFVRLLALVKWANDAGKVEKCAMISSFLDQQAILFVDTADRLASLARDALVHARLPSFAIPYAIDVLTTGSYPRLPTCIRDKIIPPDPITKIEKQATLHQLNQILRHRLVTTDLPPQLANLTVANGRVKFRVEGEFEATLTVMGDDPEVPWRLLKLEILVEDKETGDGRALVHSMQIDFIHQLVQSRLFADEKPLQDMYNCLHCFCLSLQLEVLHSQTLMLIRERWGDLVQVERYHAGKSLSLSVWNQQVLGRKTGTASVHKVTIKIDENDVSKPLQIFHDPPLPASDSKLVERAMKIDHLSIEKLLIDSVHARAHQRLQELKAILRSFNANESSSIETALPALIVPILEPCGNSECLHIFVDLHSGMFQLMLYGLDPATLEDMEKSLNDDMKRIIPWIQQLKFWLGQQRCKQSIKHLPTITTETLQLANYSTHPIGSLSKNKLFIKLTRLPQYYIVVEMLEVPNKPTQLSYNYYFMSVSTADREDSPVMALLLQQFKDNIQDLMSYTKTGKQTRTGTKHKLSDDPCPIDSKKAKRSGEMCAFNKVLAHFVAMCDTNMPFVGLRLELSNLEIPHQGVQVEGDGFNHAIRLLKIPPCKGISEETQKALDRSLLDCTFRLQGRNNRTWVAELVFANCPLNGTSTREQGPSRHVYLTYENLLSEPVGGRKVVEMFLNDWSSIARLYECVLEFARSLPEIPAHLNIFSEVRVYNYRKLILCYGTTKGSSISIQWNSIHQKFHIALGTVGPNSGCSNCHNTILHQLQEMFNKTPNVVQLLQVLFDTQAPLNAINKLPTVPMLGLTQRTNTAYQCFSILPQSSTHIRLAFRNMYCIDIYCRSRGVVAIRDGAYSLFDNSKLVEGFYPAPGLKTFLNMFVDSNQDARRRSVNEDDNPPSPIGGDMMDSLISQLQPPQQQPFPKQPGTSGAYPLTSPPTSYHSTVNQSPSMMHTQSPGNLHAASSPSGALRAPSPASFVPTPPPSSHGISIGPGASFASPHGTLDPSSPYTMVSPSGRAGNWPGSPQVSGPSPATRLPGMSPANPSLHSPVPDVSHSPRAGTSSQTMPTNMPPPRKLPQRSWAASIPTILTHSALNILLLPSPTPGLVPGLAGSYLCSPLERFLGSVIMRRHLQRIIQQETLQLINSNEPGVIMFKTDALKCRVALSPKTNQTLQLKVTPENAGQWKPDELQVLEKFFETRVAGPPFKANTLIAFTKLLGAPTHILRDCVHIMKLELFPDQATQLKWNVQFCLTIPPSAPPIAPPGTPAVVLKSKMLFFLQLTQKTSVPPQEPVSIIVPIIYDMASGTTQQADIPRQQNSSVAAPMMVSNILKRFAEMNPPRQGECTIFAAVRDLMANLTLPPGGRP

MED15 = target: T2, MED15
MED16 = target: T3, MED16
MED17 = target: B3
MED30 = target: B1

| binding result (MED22) | binding result (MED27) | binding result (MED29) | binding result (MED14) | binding result (MED15) | binding result (MED16) | binding result (MED17) | binding result (MED30) | Binder |
| --- | --- | --- | --- | --- | --- | --- | --- | --- |
| binds | binds | binds |  |  |  |  |  | B1 |
|  |  |  | binds | binds | binds | binds |  | B2 |
|  |  |  | binds | binds |  |  |  | B3 |
| binds | binds | binds |  |  |  |  | binds | MED28 (natural protein, Mus musculus (endogenous in CH12 cells), UniProt Q920D3 1-178, looked up) MAASLGGMFTGQPPGPPPPPPGLPGQASLLQAAPGAPRPSNSTLVDELESSFEACFASLVSQDYVNGTDQEEIRTGVDQCIQKFLDIARQTECFFLQKRLQLSVQKPDQVIKEDVSELRSELQRKDALVQKHLTKLRHWQQVLEDINVQHKKPADMPQGSLAFLEQASANIPAPLKQT |
|  | binds |  | binds | binds | binds |  |  | B4 |
